Results from publication PMC3178889 (Nature neuroscience, 2011).
“Also recorded” adds a separate entry of the source.

B1: farnesylated Tγ: farnesylated transducin γ-subunit (protein)
chain: MPVINIEDLTEKDKLKMEVDQLKKEVTLERMMVSKCCEEVRDYIEERSGEDPLVKGIPEDKNPFKELKGGCVIS
modifications: farnesylated
B2: GCAP1: N-myristoylated GCAP1, Ca^2+-binding protein (protein)
chain: MGNIMEGKSVEELSSTECHQWYKKFMTECPSGQLTLYEFRQFFGLKNLSPSASQYVEQMFETFDFNKDGYIDFMEYVAALSLVLKGKVEQKLRWYFKLYDVDGNGCIDRDELLTIIRAIRTINPWSDSSMSAEEFTDTVFAKIDINGDGELSLEEFMEGVQKDQMLLDTLTRSLDLTGIVRRLQNGEHEEAGTGDLAAEAAG
modifications: N-myristoylated
B3: cone Tα: cone transducin α-subunit (protein)
chain: MGSGASAEDKELAKRSKELEKKLQEDADKEAKTVKLLLLGAGESGKSTIVKQMKIIHQDGYSPEECLEYKAIIYGNVLQSILAIIRAMPTLGIDYAEVSCVDNGRQLNNLADSIEEGTMPPELVEVIRKLWKDGGVQACFDRAAEYQLNDSASYYLNQLDRITAPDYLPNEQDVLRSRVKTTGIIETKFSVKDLNFRMFDVGGQRSERKKWIHCFEGVTCIIFCAALSAYDMVLVEDDEVNRMHESLHLFNSICNHKFFAATSIVLFLNKKDLFEEKIKKVHLSICFPEYDGNNSYEDAGNYIKSQFLDLNMRKDVKEIYSHMTCATDTQNVKFVFDAVTDIIIKENLKDCGLF
B4: recoverin: Ca^2+-binding protein recoverin (protein)
chain: MGNSKSGALSKEILEELQLNTKFTEEELSAWYQSFLKECPSGRITRQEFESIYSKFFPDSDPKAYAQHVFRSFDANSDGTLDFKEYVIALHMTTAGKPTQKLEWAFSLYDVDGNGTISKNEVLEIVMAIFKMIKPEDVKLLPDDENTPEKRAEKIWAFFGKKEDDKLTEEEFIEGTLANKEILRLIQFEPQKVKERIKEKKQ

Tested on: GST-UNC119
Experiment: GST-UNC119 pulldown of proteins from retina lysates or HEK cells
Format: binding, bovine
Details: bovine or mouse retina lysate; Coomassie/LC-MS/MS or immunoblot

Molecule	interaction with GST-UNC119 in pulldown from retina lysate
B1	not with farnesylated Tγ
B2	does not interact with GST-UNC119; also recorded: failed to interact
B3	Pulldown of rod and cone Tα
B4	failed to interact
